Assay results taken from publication PMC4957052 (The Journal of Biological Chemistry, 2016).

Key:
[1] = target: T1, mouse β-catenin (GST cleaved) (mouse, UniProt Q02248 1-781); experiment: not stated; purified mouse β-catenin mixed with αT-catenin; data not shown; conditions: both partners purified
T1 construct: β-catenin, mouse; Probably the construct of m7 (full length) after TEV cleavage; source: E. coli BL21(DE3), purified (glutathione-agarose, TEV cleavage, Mono Q, S200 gel filtration)
T1 sequence (looked up): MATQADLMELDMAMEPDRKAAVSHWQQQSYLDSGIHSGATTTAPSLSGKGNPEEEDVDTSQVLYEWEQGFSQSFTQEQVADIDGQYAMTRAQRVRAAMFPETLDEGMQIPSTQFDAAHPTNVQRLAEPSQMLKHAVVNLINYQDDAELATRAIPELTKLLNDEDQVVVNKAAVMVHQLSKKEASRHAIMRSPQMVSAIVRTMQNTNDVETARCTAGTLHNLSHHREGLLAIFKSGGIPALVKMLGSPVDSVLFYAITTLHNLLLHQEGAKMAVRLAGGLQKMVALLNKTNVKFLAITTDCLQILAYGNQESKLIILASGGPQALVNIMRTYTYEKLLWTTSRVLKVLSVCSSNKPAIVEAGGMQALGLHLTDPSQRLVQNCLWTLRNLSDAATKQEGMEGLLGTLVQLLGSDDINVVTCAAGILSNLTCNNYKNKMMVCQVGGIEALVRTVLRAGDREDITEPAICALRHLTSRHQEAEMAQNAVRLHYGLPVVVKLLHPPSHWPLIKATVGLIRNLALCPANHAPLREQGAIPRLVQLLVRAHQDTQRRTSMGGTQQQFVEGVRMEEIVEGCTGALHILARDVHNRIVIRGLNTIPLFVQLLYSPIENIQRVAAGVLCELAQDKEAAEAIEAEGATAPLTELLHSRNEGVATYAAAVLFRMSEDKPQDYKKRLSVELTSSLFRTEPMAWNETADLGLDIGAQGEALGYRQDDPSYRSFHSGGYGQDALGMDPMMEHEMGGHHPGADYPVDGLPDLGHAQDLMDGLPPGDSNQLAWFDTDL

[2] = target: the molecule itself; experiment: SEC + other: sucrose density gradient centrifugation; analytical Superdex 200 at 4 °C in 20 mM Tris pH 8.0, 150 mM NaCl, 1 mM DTT, protein injected at 25-30 μM (25-50 μM in the results); 5-20% sucrose gradients, 200,000 x g 4 h 4 °C, protein loaded at ≥20 μM; molecular mass from Stokes radius and sedimentation coefficient
[3] = target: T2, M. musculus αE-catenin (M. musculus), P26231; experiment: as above; conditions: remark: other sources report otherwise
T2 chain: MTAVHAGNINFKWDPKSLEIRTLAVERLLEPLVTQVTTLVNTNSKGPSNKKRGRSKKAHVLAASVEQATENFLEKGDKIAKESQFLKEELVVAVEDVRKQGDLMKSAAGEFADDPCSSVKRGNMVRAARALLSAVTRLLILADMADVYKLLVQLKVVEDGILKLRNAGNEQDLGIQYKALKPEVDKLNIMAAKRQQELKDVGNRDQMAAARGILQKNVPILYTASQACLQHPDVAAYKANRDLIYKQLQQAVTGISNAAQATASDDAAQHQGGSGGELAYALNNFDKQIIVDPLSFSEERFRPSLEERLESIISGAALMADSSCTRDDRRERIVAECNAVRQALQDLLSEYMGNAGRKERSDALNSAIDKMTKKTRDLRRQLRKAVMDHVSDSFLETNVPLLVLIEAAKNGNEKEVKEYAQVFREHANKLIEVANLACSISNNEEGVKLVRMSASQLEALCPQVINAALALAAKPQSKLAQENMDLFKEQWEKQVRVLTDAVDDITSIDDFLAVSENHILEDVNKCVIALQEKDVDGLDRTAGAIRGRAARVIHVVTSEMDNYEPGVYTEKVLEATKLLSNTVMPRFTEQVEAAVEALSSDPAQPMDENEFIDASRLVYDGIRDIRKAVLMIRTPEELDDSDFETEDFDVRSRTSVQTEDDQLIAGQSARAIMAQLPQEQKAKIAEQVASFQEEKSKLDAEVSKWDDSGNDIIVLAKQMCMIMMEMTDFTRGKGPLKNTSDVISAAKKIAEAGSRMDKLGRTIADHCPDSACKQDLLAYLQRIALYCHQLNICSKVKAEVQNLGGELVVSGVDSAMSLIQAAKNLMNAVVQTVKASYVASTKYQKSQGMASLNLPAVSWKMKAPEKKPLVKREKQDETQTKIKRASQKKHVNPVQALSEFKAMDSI

Binder	stoichiometry N [2]	further results
M. musculus αT-catenin (wild type, full length) (natural protein, UniProt Q65CL1 1-895, looked up, Cloned into pGEX-TEV; cleaved from GST with tobacco etch virus protease; also called αT (testes)-catenin; WT αT-catenin; source: E. coli BL21(DE3), purified (glutathione-agarose, TEV cleavage, Mono Q, S200 gel filtration)) MSAETPITLNMDTQDLQIQTFTVEKLLEPLIIQVTTLVNCPQNPSNRKKGRSKRARVLLASVEEATWNLLDKGEMIAKEATVLKEELAAALQEVRKESKALKVSAERFTDDPCYLPKREAVVQAARALLAAVTRLLVLADMIDVMCLLQHVSSFQRTFESLKNVSNKSDLQRTYQKLGKELESLDYLAFKRQQDLKSPSQRDEIAGARATLKENSPLLHSICSACLEHSDVASLKASKDTVCEEIQNALDVISNASQGIQNAPAPPEPQAATLGSAFDELENLIVLNPLTVTEEDVRPSLEKRLEAIISGAALLADSSCTRDLHRERIIAECNAIRQALQDLLTEYMSNTGKTERSNTLNTAIVNMSKKTRDLRRQLRKAIIDHISDSFLDTTVPLLVLIEAAKNGRVKEIKDYAAIFHEHTGRLVEVANLACSMSTNEDGIKIVRIAANHLETLCPQIINAALALASRPKSQVVKNTMEMYKRTWEHYIHVLTEAVDDITSIDDFLAVSESHILEDVNKCIIALRDQDADNLDRAAGAIRGRAARVAHIVAGEMDSYEPGAYTEGVMRNVNFLTSTVIPEFVTQVNVALDALSKNSLTALDDNQFVDISKKIYDTIHDIRCSVMMIRTPEELEDVSDLEDDHEVRSHTSIQTEGKTDRAKMTQLPEAEKEKIAEQVADFKKVKSKLDAEIEIWDDTSNDIIVLAKKMCMIMMEMTDFTRGKGPLKHTTDVIYAAKMISESGSRMDVLARQIANQCPDPPCKQDLLAYLEQIKFYSHQLKICSQVKAEIQNLGGELIVSALDSVTSLIQAAKNLMNAVVQTVKMSYIASTKIIRIQSSAGPRHPVVMWRMKAPAKKPLIKREKPEETWAAVRRGSAKKKIHPVQVMSEFRGRQVY	–	stoichiometry N [1]: 1
M. musculus αT-catenin V94D (full length) (natural protein, UniProt Q65CL1 1-895, looked up, αT-catenin, Mus musculus, full length, with the ARVC-linked V94D change made by site-directed mutagenesis; here it was put into the mouse protein; also called V94D mutant; V94D homodimer; source: E. coli BL21(DE3), purified (glutathione-agarose, TEV cleavage, Mono Q, S200 gel filtration)) MSAETPITLNMDTQDLQIQTFTVEKLLEPLIIQVTTLVNCPQNPSNRKKGRSKRARVLLASVEEATWNLLDKGEMIAKEATVLKEELAAALQEDRKESKALKVSAERFTDDPCYLPKREAVVQAARALLAAVTRLLVLADMIDVMCLLQHVSSFQRTFESLKNVSNKSDLQRTYQKLGKELESLDYLAFKRQQDLKSPSQRDEIAGARATLKENSPLLHSICSACLEHSDVASLKASKDTVCEEIQNALDVISNASQGIQNAPAPPEPQAATLGSAFDELENLIVLNPLTVTEEDVRPSLEKRLEAIISGAALLADSSCTRDLHRERIIAECNAIRQALQDLLTEYMSNTGKTERSNTLNTAIVNMSKKTRDLRRQLRKAIIDHISDSFLDTTVPLLVLIEAAKNGRVKEIKDYAAIFHEHTGRLVEVANLACSMSTNEDGIKIVRIAANHLETLCPQIINAALALASRPKSQVVKNTMEMYKRTWEHYIHVLTEAVDDITSIDDFLAVSESHILEDVNKCIIALRDQDADNLDRAAGAIRGRAARVAHIVAGEMDSYEPGAYTEGVMRNVNFLTSTVIPEFVTQVNVALDALSKNSLTALDDNQFVDISKKIYDTIHDIRCSVMMIRTPEELEDVSDLEDDHEVRSHTSIQTEGKTDRAKMTQLPEAEKEKIAEQVADFKKVKSKLDAEIEIWDDTSNDIIVLAKKMCMIMMEMTDFTRGKGPLKHTTDVIYAAKMISESGSRMDVLARQIANQCPDPPCKQDLLAYLEQIKFYSHQLKICSQVKAEIQNLGGELIVSALDSVTSLIQAAKNLMNAVVQTVKMSYIASTKIIRIQSSAGPRHPVVMWRMKAPAKKPLIKREKPEETWAAVRRGSAKKKIHPVQVMSEFRGRQVY	2	–
αT-catenin V94D ΔABD (aa 1-659) (domain or fragment, M. musculus, UniProt Q65CL1 1-659, looked up, αT-catenin, Mus musculus, N-terminal head region aa 1-659 (ABD aa 660-895 deleted) with V94D; source: E. coli BL21(DE3), purified (glutathione-agarose, TEV cleavage, Mono Q, S200 gel filtration)) MSAETPITLNMDTQDLQIQTFTVEKLLEPLIIQVTTLVNCPQNPSNRKKGRSKRARVLLASVEEATWNLLDKGEMIAKEATVLKEELAAALQEDRKESKALKVSAERFTDDPCYLPKREAVVQAARALLAAVTRLLVLADMIDVMCLLQHVSSFQRTFESLKNVSNKSDLQRTYQKLGKELESLDYLAFKRQQDLKSPSQRDEIAGARATLKENSPLLHSICSACLEHSDVASLKASKDTVCEEIQNALDVISNASQGIQNAPAPPEPQAATLGSAFDELENLIVLNPLTVTEEDVRPSLEKRLEAIISGAALLADSSCTRDLHRERIIAECNAIRQALQDLLTEYMSNTGKTERSNTLNTAIVNMSKKTRDLRRQLRKAIIDHISDSFLDTTVPLLVLIEAAKNGRVKEIKDYAAIFHEHTGRLVEVANLACSMSTNEDGIKIVRIAANHLETLCPQIINAALALASRPKSQVVKNTMEMYKRTWEHYIHVLTEAVDDITSIDDFLAVSESHILEDVNKCIIALRDQDADNLDRAAGAIRGRAARVAHIVAGEMDSYEPGAYTEGVMRNVNFLTSTVIPEFVTQVNVALDALSKNSLTALDDNQFVDISKKIYDTIHDIRCSVMMIRTPEELEDVSDLEDDHEVRSHTSIQTEGKTDR	2	–
M. musculus αE-catenin, P26231 1-906 (natural protein) MTAVHAGNINFKWDPKSLEIRTLAVERLLEPLVTQVTTLVNTNSKGPSNKKRGRSKKAHVLAASVEQATENFLEKGDKIAKESQFLKEELVVAVEDVRKQGDLMKSAAGEFADDPCSSVKRGNMVRAARALLSAVTRLLILADMADVYKLLVQLKVVEDGILKLRNAGNEQDLGIQYKALKPEVDKLNIMAAKRQQELKDVGNRDQMAAARGILQKNVPILYTASQACLQHPDVAAYKANRDLIYKQLQQAVTGISNAAQATASDDAAQHQGGSGGELAYALNNFDKQIIVDPLSFSEERFRPSLEERLESIISGAALMADSSCTRDDRRERIVAECNAVRQALQDLLSEYMGNAGRKERSDALNSAIDKMTKKTRDLRRQLRKAVMDHVSDSFLETNVPLLVLIEAAKNGNEKEVKEYAQVFREHANKLIEVANLACSISNNEEGVKLVRMSASQLEALCPQVINAALALAAKPQSKLAQENMDLFKEQWEKQVRVLTDAVDDITSIDDFLAVSENHILEDVNKCVIALQEKDVDGLDRTAGAIRGRAARVIHVVTSEMDNYEPGVYTEKVLEATKLLSNTVMPRFTEQVEAAVEALSSDPAQPMDENEFIDASRLVYDGIRDIRKAVLMIRTPEELDDSDFETEDFDVRSRTSVQTEDDQLIAGQSARAIMAQLPQEQKAKIAEQVASFQEEKSKLDAEVSKWDDSGNDIIVLAKQMCMIMMEMTDFTRGKGPLKNTSDVISAAKKIAEAGSRMDKLGRTIADHCPDSACKQDLLAYLQRIALYCHQLNICSKVKAEVQNLGGELVVSGVDSAMSLIQAAKNLMNAVVQTVKASYVASTKYQKSQGMASLNLPAVSWKMKAPEKKPLVKREKQDETQTKIKRASQKKHVNPVQALSEFKAMDSI	–	stoichiometry N [3]: 2
